From IntAct's records for PubMed 31435016 come the findings set out here.

The chains are these.
B1: Isoform 2 of ATP-binding cassette sub-family B member 8, mitochondrial (Homo sapiens), Q9NUT2-2 (parent)
chain: MLVHLFRVGIRGGPFPGRLLPPLRFQTFSAVRYSDGYRSSSLLRAVAHLRSQLWAHLPRAPLAPRWSPSAWCWVGGALLGPMVLSKHPHLCLVALCEAEEAPPASSTPHVVGSRFNWKLFWQFLHPHLLVLGVAVVLALGAALVNVQIPLLLGQLVEVVAKYTRDHVGSFMTESQNLSTHLLILYGVQGLLTFGYLVLLSHVGERMAVDMRRALFSSLLRQDITFFDANKTGQLVSRLTTDVQEFKSSFKLVISQGLRSCTQVAGCLVSLSMLSTRLTLLLMVATPALMGVGTLMGSGLRKLSRQCQEQIARAMGVADEALGNVRTVRAFAMEQREEERYGAELEACRCRAEELGRGIALFQGLSNIAFNCMVLGTLFIGGSLVAGQQLTGGDLMSFLVASQTVQRSMANLSVLFGQVVRGLSAGARVFEYMALNPCIPLSGGCCVPKEQLRGSVTFQNVCFSYPCRPGFEVLKDFTLTLPPGKIVALVGQSGGGKTTVASLLERFYDPTAGVVMLDGRDLRTLDPSWLRGQVVGFISQEPVLFGTTIMENIRFGKLEASDEEVYTAAREANAHEFITSFPEGYNTVVGERGTTLSGGQKQRLAIARALIKQPTVLILDEATSALDAESERVVQEALDRASAGRTVLVIAHRLSTVRGAHCIVVMADGRVWEAGTHEELLKKGGLYAELIRRQALDAPRTAAPPPKKPEGPRSHQHKS
partner: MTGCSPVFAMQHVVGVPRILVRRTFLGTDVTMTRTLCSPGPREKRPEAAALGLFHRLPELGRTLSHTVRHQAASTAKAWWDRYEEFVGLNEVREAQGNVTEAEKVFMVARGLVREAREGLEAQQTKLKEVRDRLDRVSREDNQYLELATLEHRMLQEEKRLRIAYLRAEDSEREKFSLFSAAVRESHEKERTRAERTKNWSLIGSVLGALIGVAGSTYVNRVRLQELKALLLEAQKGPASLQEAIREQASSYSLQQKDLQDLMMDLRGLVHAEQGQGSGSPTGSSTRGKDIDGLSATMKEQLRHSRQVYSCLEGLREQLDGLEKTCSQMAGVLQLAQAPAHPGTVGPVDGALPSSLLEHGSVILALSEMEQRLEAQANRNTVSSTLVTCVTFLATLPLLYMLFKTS

In this assay the parent is B1. Conditions: with Ccdc51, Q3URS9-1.
As to K496A, the “effect of a mutation on the interaction” value is “with no effect”.
